# According to paper PMC5829233, “PV1, a novel Plasmodium falciparum merozoite dense granule protein, interacts with exported protein in infected erythrocytes” (Scientific Reports, 2018):
# T1: recombinant PfPV1 (P. falciparum Parasitophorous Vacuolar protein 1), His-tagged (P. falciparum 3D7, UniProt Q8II72 23-452)
# T1 chain: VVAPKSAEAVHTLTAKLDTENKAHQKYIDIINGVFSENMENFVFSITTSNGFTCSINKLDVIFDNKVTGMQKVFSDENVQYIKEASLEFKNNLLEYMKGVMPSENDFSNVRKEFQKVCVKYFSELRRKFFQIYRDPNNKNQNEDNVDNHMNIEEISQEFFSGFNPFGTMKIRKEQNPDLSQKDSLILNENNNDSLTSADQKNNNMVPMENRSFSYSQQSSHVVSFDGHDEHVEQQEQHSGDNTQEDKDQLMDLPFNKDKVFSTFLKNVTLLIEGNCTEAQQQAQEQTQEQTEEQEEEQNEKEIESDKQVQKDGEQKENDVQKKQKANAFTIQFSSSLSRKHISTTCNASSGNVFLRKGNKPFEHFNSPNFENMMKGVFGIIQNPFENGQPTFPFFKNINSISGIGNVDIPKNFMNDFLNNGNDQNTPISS
# B1: recombinant PfPV1 (P. falciparum Parasitophorous Vacuolar protein 1), His-tagged (natural protein)
# chain: T1 chain
# notes: also called His-tagged purified recombinant PfPV1; not shown: His6, C-terminal, kept
# B2: Pf3D7_0801000N, N-terminal truncate of Pf3D7_0801000 spanning 93 aa - 494 aa (domain or fragment)
# chain: GANPESISLGYELSEKDEGNKNDLINSATDVSTELENLKERLFPELELYTNDQNSRNNTPNLRKGSLGFDSFKKLELGTLNQFDKDKMINLKDETNMNEFEGFLGRNSMASNVVTSELFDEPVDDSSSTTTSTGTKLQNVPSNDNNGELLKDEPIDDYINNNSKVESEDNYYAQQNMQSQSKDNYASEQNVADQSTDNYPTQHDVPVQLRDNYASEQEYFDRGEQLNDVSADNNTSNKLKDEPVDNNTSNKLKDEPVDNNTSNKLKDEPVDDNTSNKLKDEPVDNNTINKLKDEPVDDNTSNILKDEPVDDHAGKHLKDEPVDDHAGKHMKDEPVDIDRTNIKKGLNEQHVNPWTTTLADLKNINNSMKIEKNNKSNEQVKNTSVSKSCDIIKPSKFNKKNL
# B3: PTP5_Tr0, GST-tagged recombinant PTP5 36 aa - 631 aa (domain or fragment)
# chain: TYNNYTYNGYNNDGSKQVRCKRLLSEPAVEFDTIFDVFKESFLDQMGCSDQDKDEIKNAMKIYYDNIDMNALSNEIQTNDNFFNEFGNDVNSINKIMKTDITNEQGTSADNNTTENNVSTSQVDEQPEASTSGVERMKERSNLFANNLTEEKNDTGDIKKEENKSKPSQLDGNNHSETSSHQGEKNNENETEKKTDQNETGTKKPSKYTMNLDSPLLKGSSEGETSSKKAQEKSVEPTKKPSKYTMNLDSPLLKGSSGSETSSTKESNDSNGATKKPSKYTMNLDSPLLKGSSGGKTSSNKESNESNEPTKKPSKYTMNLDSPLLKGSSGGETSSNKESNENNEPTKKPSKYTMNLDSPLLKGSSEGETSSNKESNESNEPTKKPSKYTMNLDSPLLKGSSGGETSSNKESNENNEPTKKPSKYTMNLDSPLLKGSSEGETSSNKESNESNEPTKKPSKYTMNLDSPLLKGSSEGETSSNEKQEESNVATKKPSKYTLNLDSPLLKSETKSDVKRGSNKSFSLENIGKLDIGSLLAQNLELLKGFALNFQTLSLFFLVFVGQFYPKHFQKAAIFIGMVNVFLECKRLYGRSQKKLK
# notes: not shown: GST, N-terminal, kept
# Columns and labels:
# [1] = biological target: recombinant PfPV1 (P. falciparum Parasitophorous Vacuolar protein 1), His-tagged (P. falciparum 3D7) (UniProt Q8II72); assay: SPR; Biacore X100, CM5 chip, […]; HBS-EP+ (10 mM HEPES pH 7.4, 150 mM NaCl, 3 mM EDTA, 0.05% P20); single-cycle kinetics, global fit
# [2] = biological target: recombinant PfPV1 (P. falciparum Parasitophorous Vacuolar protein 1), His-tagged (P. falciparum 3D7) (UniProt Q8II72); assay: SPR; Biacore X100, CM5 chip, […]; HBS-EP+ (10 mM HEPES pH 7.4, 150 mM NaCl, 3 mM EDTA, 0.05% P20); multi-cycle kinetics, global fit
# [3] = biological target: B3; assay: SPR; Biacore X100, CM5 chip, […]; HBS-EP+ (10 mM HEPES pH 7.4, 150 mM NaCl, 3 mM EDTA, 0.05% P20); single-cycle kinetics, global fit; conditions: both partners purified
# [4] = biological target: T1, recombinant PfPV1 (P. falciparum …); assay: SPR
# [5] = biological target: B1; assay: SPR; Biacore X100, CM5 chip, […]; HBS-EP+ (10 mM HEPES pH 7.4, 150 mM NaCl, 3 mM EDTA, 0.05% P20); single-cycle kinetics, global fit; conditions: both partners purified
molecule,measurement,setting,value
"PTP5_Tr2, GST-tagged recombinant PTP5 537 aa - 631 aa (domain or fragment)",Kd,[1],1.24 nM
"PTP5_Tr1, GST-tagged recombinant PTP5 36 aa - 334 aa (domain or fragment)",Kd,[2],938 nM
B1,Kd,[3],2.71 nM
B2,Kd,[4],45.4 nM
B3,stoichiometry N,[5],1
